Source: patent publication US20260151519A1 (AKTIS ONCOLOGY, published 2026)
Bridges are numbered along the chain shown (N, C = ends). Primed or numbered codes have the meaning given here. Where no end group is shown, it is not given here. The star is where a group is joined. Biotin = O=C1N[C@H]2[C@H](CS[C@H]2CCCCC(=O)*)N1; PEG4″ = 4(ethylene glycol)

T1: Human Nectin-4 (human, UniProt Q96NY8 32-349, limits assumed)
T1 construct: Protein immobilised on the SPR chip; also called target protein
T1 sequence: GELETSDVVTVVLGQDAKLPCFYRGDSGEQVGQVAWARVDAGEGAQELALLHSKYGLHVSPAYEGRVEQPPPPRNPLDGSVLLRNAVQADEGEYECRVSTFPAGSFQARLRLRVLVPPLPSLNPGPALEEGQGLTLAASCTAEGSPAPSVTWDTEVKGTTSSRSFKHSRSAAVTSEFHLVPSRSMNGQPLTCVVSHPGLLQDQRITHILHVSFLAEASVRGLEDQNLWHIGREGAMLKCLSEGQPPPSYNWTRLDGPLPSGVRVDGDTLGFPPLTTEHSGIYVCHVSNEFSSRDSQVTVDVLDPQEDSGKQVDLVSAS


What follows are binders tested against T1, Human Nectin-4 (assay: Table 2B (DELFIA or SPR)).

With {Biotin-PEG4″}-CEYDEEFFTALKRLRGGDICEYIQASFQYLPGLCIEEILDNLGCS-OH (designed binder, disulfide 1-34, 20-44) [C178] as the binder, how does the Kd read?
The Kd was 1.4 nM.

For {Biotin-PEG4″}-CEYDEEFFTALSRLRGGDICYYIQQAFQYLPGLCIEEILDNLGCS (designed binder, disulfide 1-34, 20-44) [C135], which Kd is on record?
Its Kd is 5.42 nM.

How did the Kd turn out when {Biotin-PEG4″}-CDYDEEFFTALARLRGGDICEYIQAKFQYLPGLCIEEILDNLGCS (designed binder, disulfide 1-34, 20-44) [C141] was run?
Its Kd is 0.64 nM.

For {Biotin-PEG4″}-CEYDEEFFTALARLRGGDICEYIQAKFQYLEGLCIEEILDNLGCS-OH (designed binder, disulfide 1-34, 20-44) [C150], which Kd is on record?
Its Kd is 1 nM.

How did the Kd turn out when {Biotin-PEG4″}-CEYDEEFFTALARLRGGDICQYIQAKFAYVPGLCIEEILDNLGCS-OH (designed binder, disulfide 1-34, 20-44) [C155] was run?
The Kd was 1.1 nM.

For {Biotin-PEG4″}-CEYDEAFFTALARLRGGDICQYIQAKFQYLPGLCIEEILDNLGCS-OH (designed binder, disulfide 1-34, 20-44) [C151], which Kd is on record?
The Kd was 0.68 nM.

{Biotin-PEG4″}-CEYDEEFFTALARLRGGDICDYIQAKFQYLPGLCIAEILDNLGCS-OH (designed binder, disulfide 1-34, 20-44) [C157] was tested. Which Kd did it give?
Its Kd is 1.1 nM.

For {Biotin-PEG4″}-CEYDEEFFTALARLRGADICYYIQAKFQYLPGDCIEEILDNLGCS (designed binder, disulfide 1-34, 20-44) [C140], which Kd is on record?
The Kd was 1.1 nM.

Which Kd does the source give for Ac-CEYDEEFFTALARLRGGDICYYIQAKFQYLPGLCIEEILDNLGCS (designed binder, disulfide 1-34, 20-44) [C124] here?
The Kd was 1.1 nM.

Which Kd does the source give for {Biotin-PEG4″}-CEYDEEFFTALARLRGGDICYYIQAKFQYLPGECIEEILQNLGCS-OH (designed binder, disulfide 1-34, 20-44) [C142] here?
The Kd was 0.81 nM.

{Biotin-PEG4″}-CEYDEEFFTALARLRGGDICQYIQAKFQYLPALCIEEILDNLGCS (designed binder, disulfide 1-34, 20-44) [C153] was tested. Which Kd did it give?
Its Kd is 0.56 nM.

How did the Kd turn out when {Biotin-PEG4″}-CEYDEEFFTALARLRGADICDYIQAKFQYLPGLCIEEILDNLGCS (designed binder, disulfide 1-34, 20-44) [C147] was run?
The Kd was 0.69 nM.

How did the Kd turn out when {Biotin-PEG4″}-CEYDEEFFTALARLRGGDICYYILAKFQYLPGECIEEILDNLGCS (designed binder, disulfide 1-34, 20-44) [C145] was run?
Its Kd is 1.3 nM.

Which Kd does the source give for {Biotin-PEG4″}-CEYDEQFFTALKALRGGDICYYIQASFNYLPDLCIEEILDNLGCS (designed binder, disulfide 1-34, 20-44) [C115] here?
The Kd was 6.46 nM.

With Ac-CEYDEEFFTALKRLRGGDICYYIQAKFQYLPKLCIEEILDNLGCS (designed binder, disulfide 1-34, 20-44) [C116] as the binder, how does the Kd read?
Its Kd is 0.78 nM.

How did the Kd turn out when {Biotin-PEG4″}-CEYDEEFFTALARLRGSDICLYIQAKFQYLPGLCIEEILDNLGCS-OH (designed binder, disulfide 1-34, 20-44) [C156] was run?
Its Kd is 1.1 nM.

With Ac-CEYDEEFFTALKRLRGGDICYYIQASFQYLPGLCIEEILDNLGCS (designed binder, disulfide 1-34, 20-44) [C108] as the binder, how does the Kd read?
The Kd was 5.78 nM.

Which Kd does the source give for Ac-CEYDEEFFTALKRLRGGDICYYIQKAFQYLPGLCIEEILDNLGCS (designed binder, disulfide 1-34, 20-44) [C120] here?
The Kd was 2.11 nM.

Which Kd does the source give for {Biotin-PEG4″}-CEYDEEFFTALARLRGGDICYYIQAKFAYLPALCIEEILDNLGCS (designed binder, disulfide 1-34, 20-44) [C154] here?
Its Kd is 0.94 nM.

With {Biotin-PEG4″}-CEYDEEFFTALASLRGGDICYYIQAKFQYLPGLCIEEILDNLGCS-OH (designed binder, disulfide 1-34, 20-44) [C161] as the binder, how does the Kd read?
The Kd was 7.5 nM.

Which Kd does the source give for {Biotin-PEG4″}-CEYDEEFFTALARLRGGDICYYIQAKFQYLPGLCIEEILDNLGCS (designed binder, disulfide 1-34, 20-44) [C127] here?
Its Kd is 1.27 nM.

With {Biotin-PEG4″}-CEYDEEFFTALAQLRGGDICYYIQAKFQYLPGLCIEEILDNLGCS-OH (designed binder, disulfide 1-34, 20-44) [C162] as the binder, how does the Kd read?
The Kd was 8.8 nM.

Which Kd does the source give for {Biotin-PEG4″}-CEYDEQFFTALARLRGGDICEYIQAKFQYLPGLCIEEILDNLGCS (designed binder, disulfide 1-34, 20-44) [C146] here?
The Kd was 0.54 nM.

For {Biotin-PEG4″}-CEYDGEFFTALARLRGGDICQYIQAKFQYLPGLCIEEILDNLGCS-OH (designed binder, disulfide 1-34, 20-44) [C158], which Kd is on record?
Its Kd is 1.1 nM.

With {Biotin-PEG4″}-CEYDEEFFTALKRLRGGDICYYIQASFQYLPGLCIEEILDNLGCS (designed binder, disulfide 1-34, 20-44) [C111] as the binder, how does the Kd read?
The Kd was 4.32 nM.

With {Biotin-PEG4″}-CEYDEEFFTALARLRGGDICEYIQAKFQYLPGLCIQEILDNLGCS (designed binder, disulfide 1-34, 20-44) [C148] as the binder, how does the Kd read?
Its Kd is 0.82 nM.

For {Biotin-PEG4″}-CEYDEEFFTALKRLRGGDICYYIQAKFQYLPKLCIEEILDNLGCS (designed binder, disulfide 1-34, 20-44) [C119], which Kd is on record?
Its Kd is 0.95 nM.

{Biotin-PEG4″}-CEYDGEFFTALARLRGADICEYIQAKFQYYPGLCIEEILDNLGCS-OH (designed binder, disulfide 1-34, 20-44) [C144] was tested. Which Kd did it give?
Its Kd is 3.7 nM.

{Biotin-PEG4″}-CEYDEEFFTALKRLRGGDICYYIQKAFQYLPGLCIEEILDNLGCS (designed binder, disulfide 1-34, 20-44) [C123] was tested. Which Kd did it give?
The Kd was 1.43 nM.

With {Biotin-PEG4″}-CEYDEQFFTALARLRGGDICYYILAKFQYLPQLCIEEILDNLGCS (designed binder, disulfide 1-34, 20-44) [C152] as the binder, how does the Kd read?
Its Kd is 0.85 nM.

How did the Kd turn out when {Biotin-PEG4″}-CEYDEEFFTALARLRGGDICYYIQAYFQYLPGLCIEEILDNLGCS-OH (designed binder, disulfide 1-34, 20-44) [C165] was run?
The Kd was 4.1 nM.
